In the supplement of paper PMC9112550, “Optimization of the antimicrobial peptide Bac7 by deep mutational scanning” (BMC Biology, 2022):

Tested on: Escherichia coli TOP10
Assay: shrunken log2 fold change of peptide-encoding DNA abundance (4.5 h post-induction vs induction); higher = less antimicrobial activity (less host growth inhibition)
Conditions: time post-induction: 4.5 h; library: site-saturation at positions 5, 18, 19, 20
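Further: peptides expressed intracellularly from a pBAD plasmid library in pooled LB shake-flask culture, induced with 0.3% L-arabinose, DNA abundance read by NGS, three biological replicates, DESeq2 with apeglm shrinkage.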

| Sequence | shrunken log2 fold change |
| --- | --- |
| RRIRKRPPRLPRPRPRPYAMPRP | 0.202 |
| RRIRKRPPRLPRPRPRPACKPRP | 0.0609 |
| RRIRWRPPRLPRPRPRPEWNPRP | 0.482 |
| RRIRSRPPRLPRPRPRPEQVPRP | 0.243 |
| RRIRLRPPRLPRPRPRPTVVPRP | -0.0551 |
| RRIRWRPPRLPRPRPRPNLGPRP | 0.0106 |
| RRIRIRPPRLPRPRPRPCPAPRP | -0.247 |
| RRIRERPPRLPRPRPRPPEEPRP | 0.499 |
| RRIRVRPPRLPRPRPRPKHMPRP | -0.518 |
| RRIRNRPPRLPRPRPRPCCDPRP | -0.0282 |
| RRIRDRPPRLPRPRPRPRTYPRP | -0.126 |
| RRIRCRPPRLPRPRPRPFLSPRP | -0.28 |
| RRIRDRPPRLPRPRPRPWSWPRP | 0.215 |
| RRIRQRPPRLPRPRPRPPMHPRP | 0.277 |
| RRIRLRPPRLPRPRPRPKEQPRP | 0.0445 |
| RRIRYRPPRLPRPRPRPNGQPRP | -0.0885 |
| RRIRSRPPRLPRPRPRPYAWPRP | -0.087 |
| RRIRARPPRLPRPRPRPHSDPRP | 0.39 |
| RRIRLRPPRLPRPRPRPGDVPRP | 0.0737 |
| RRIRVRPPRLPRPRPRPFRNPRP | -0.0529 |
| RRIRKRPPRLPRPRPRPNAEPRP | 0.531 |
| RRIRGRPPRLPRPRPRPLQNPRP | 0.693 |
| RRIRIRPPRLPRPRPRPQEYPRP | -0.312 |
| RRIRWRPPRLPRPRPRPIKVPRP | -0.146 |
| RRIRHRPPRLPRPRPRPYDYPRP | -0.276 |

| Sequence | shrunken log2 fold change |
| --- | --- |
| RRIRKRPPRLPRPRPRPSANPRP | 0.0126 |
| RRIRTRPPRLPRPRPRPCQWPRP | -0.107 |
| RRIRWRPPRLPRPRPRPYMVPRP | -0.844 |
| RRIRHRPPRLPRPRPRPDEFPRP | -0.0223 |
| RRIRWRPPRLPRPRPRPPFNPRP | 0.31 |
| RRIRIRPPRLPRPRPRPPPTPRP | 0.834 |
| RRIRSRPPRLPRPRPRPDDKPRP | 0.132 |
| RRIRQRPPRLPRPRPRPCGWPRP | 0.502 |
| RRIRMRPPRLPRPRPRPMCAPRP | 1.57 |
| RRIRMRPPRLPRPRPRPHGEPRP | 0.365 |
| RRIRERPPRLPRPRPRPWFYPRP | -0.985 |
| RRIRERPPRLPRPRPRPHLCPRP | -0.101 |
| RRIRTRPPRLPRPRPRPQESPRP | -0.0142 |
| RRIRSRPPRLPRPRPRPQHVPRP | -0.17 |
| RRIRVRPPRLPRPRPRPWKMPRP | -0.148 |
| RRIRKRPPRLPRPRPRPTYFPRP | -0.817 |
| RRIRGRPPRLPRPRPRPSMQPRP | 0.599 |
| RRIRMRPPRLPRPRPRPTKFPRP | 0.339 |
| RRIRHRPPRLPRPRPRPEFMPRP | 0.0682 |
| RRIRCRPPRLPRPRPRPHTAPRP | -0.457 |
| RRIRYRPPRLPRPRPRPNTLPRP | -0.704 |
| RRIRARPPRLPRPRPRPLDEPRP | 1.53 |
| RRIRNRPPRLPRPRPRPPHDPRP | 0.114 |
| RRIRYRPPRLPRPRPRPGIEPRP | -0.276 |
| RRIRSRPPRLPRPRPRPTEKPRP | 0.0802 |

| Sequence | shrunken log2 fold change |
| --- | --- |
| RRIRWRPPRLPRPRPRPDQQPRP | 0.0822 |
| RRIRTRPPRLPRPRPRPAGCPRP | 0.316 |
| RRIRPRPPRLPRPRPRPDRMPRP | -0.234 |
| RRIRLRPPRLPRPRPRPWCHPRP | -0.441 |
| RRIRPRPPRLPRPRPRPFYPPRP | -0.854 |
| RRIRHRPPRLPRPRPRPKWEPRP | -0.000889 |
| RRIRPRPPRLPRPRPRPGRMPRP | 0.318 |
| RRIRVRPPRLPRPRPRPEPTPRP | 0.0442 |
| RRIRNRPPRLPRPRPRPRLRPRP | 0.0785 |
| RRIRRRPPRLPRPRPRPQRFPRP | 0.294 |
| RRIRERPPRLPRPRPRPPNPPRP | 0.216 |
| RRIRHRPPRLPRPRPRPCFSPRP | 0.0626 |
| RRIRFRPPRLPRPRPRPMSAPRP | -0.105 |
| RRIRGRPPRLPRPRPRPARCPRP | 0.749 |
| RRIRFRPPRLPRPRPRPSAKPRP | 0.319 |
| RRIRERPPRLPRPRPRPQHKPRP | -0.467 |
| RRIRRRPPRLPRPRPRPGLPPRP | 0.33 |
| RRIRSRPPRLPRPRPRPDTFPRP | 0.024 |
| RRIRLRPPRLPRPRPRPNFHPRP | -0.301 |
| RRIRFRPPRLPRPRPRPFPFPRP | -0.177 |
| RRIRNRPPRLPRPRPRPALRPRP | 0.0951 |
| RRIRIRPPRLPRPRPRPLFRPRP | -0.429 |
| RRIRHRPPRLPRPRPRPGYEPRP | -0.454 |
| RRIRLRPPRLPRPRPRPRMEPRP | 0.123 |
| RRIRHRPPRLPRPRPRPWFFPRP | -0.379 |

| Sequence | shrunken log2 fold change |
| --- | --- |
| RRIRARPPRLPRPRPRPLGCPRP | 0.904 |
| RRIRTRPPRLPRPRPRPCEPPRP | -0.0796 |
| RRIRGRPPRLPRPRPRPNNWPRP | 0.121 |
| RRIRGRPPRLPRPRPRPSVVPRP | 0.658 |
| RRIRWRPPRLPRPRPRPSKHPRP | -0.499 |
| RRIRVRPPRLPRPRPRPYKFPRP | -0.475 |
| RRIRCRPPRLPRPRPRPMAQPRP | -0.0404 |
| RRIRPRPPRLPRPRPRPLIAPRP | 0.113 |
| RRIRDRPPRLPRPRPRPACRPRP | 0.219 |
| RRIRRRPPRLPRPRPRPEFRPRP | 0.179 |
| RRIRDRPPRLPRPRPRPAWKPRP | 0.0693 |
| RRIRCRPPRLPRPRPRPEHGPRP | 0.11 |
| RRIRARPPRLPRPRPRPRWFPRP | 0.623 |
| RRIRDRPPRLPRPRPRPNMHPRP | 1.35 |
| RRIRLRPPRLPRPRPRPHNSPRP | -0.492 |
| RRIRQRPPRLPRPRPRPCKWPRP | -0.0434 |
| RRIRNRPPRLPRPRPRPCSDPRP | 0.0121 |
| RRIRYRPPRLPRPRPRPHVSPRP | 0.0324 |
| RRIRPRPPRLPRPRPRPFTTPRP | -0.0187 |
| RRIRIRPPRLPRPRPRPIKIPRP | -0.0548 |
| RRIRLRPPRLPRPRPRPVLHPRP | -0.024 |
| RRIRWRPPRLPRPRPRPMNLPRP | -0.063 |
| RRIRQRPPRLPRPRPRPLYMPRP | -0.198 |
| RRIRYRPPRLPRPRPRPCCPPRP | -0.38 |
| RRIRFRPPRLPRPRPRPCSFPRP | -0.349 |

| Sequence | shrunken log2 fold change |
| --- | --- |
| RRIRQRPPRLPRPRPRPQWPPRP | 0.239 |
| RRIRDRPPRLPRPRPRPGGIPRP | 0.129 |
| RRIRFRPPRLPRPRPRPWNTPRP | -1.19 |
| RRIRKRPPRLPRPRPRPYAYPRP | -0.12 |
| RRIRARPPRLPRPRPRPFWKPRP | -0.13 |
| RRIRGRPPRLPRPRPRPGKEPRP | 0.225 |
| RRIRRRPPRLPRPRPRPSIRPRP | -0.219 |
| RRIRTRPPRLPRPRPRPGVHPRP | -0.055 |
| RRIRERPPRLPRPRPRPQVNPRP | -0.129 |
| RRIRDRPPRLPRPRPRPYCHPRP | -0.121 |
| RRIRCRPPRLPRPRPRPFGGPRP | 0.0285 |
| RRIRDRPPRLPRPRPRPQAHPRP | 0.0994 |
| RRIRCRPPRLPRPRPRPPNSPRP | 0.0267 |
| RRIRDRPPRLPRPRPRPSPPPRP | -0.15 |
| RRIRFRPPRLPRPRPRPYRGPRP | -0.384 |
| RRIRQRPPRLPRPRPRPDIVPRP | -0.0164 |
| RRIRERPPRLPRPRPRPCKYPRP | 3.12 |
| RRIRYRPPRLPRPRPRPVAKPRP | -0.128 |
| RRIRVRPPRLPRPRPRPGTPPRP | -0.00585 |
| RRIRARPPRLPRPRPRPFTEPRP | -0.261 |
| RRIRSRPPRLPRPRPRPEFKPRP | 0.00218 |
| RRIRFRPPRLPRPRPRPFVCPRP | -0.398 |
| RRIRPRPPRLPRPRPRPDYMPRP | -0.334 |
| RRIRDRPPRLPRPRPRPPDQPRP | 0.72 |
| RRIRYRPPRLPRPRPRPIYNPRP | 0.36 |

| Sequence | shrunken log2 fold change |
| --- | --- |
| RRIRLRPPRLPRPRPRPTIHPRP | -0.3 |
| RRIRDRPPRLPRPRPRPWDWPRP | 1.03 |
| RRIRCRPPRLPRPRPRPDETPRP | -0.0127 |
| RRIRIRPPRLPRPRPRPRERPRP | 0.688 |
| RRIRTRPPRLPRPRPRPVMSPRP | -0.123 |
| RRIRKRPPRLPRPRPRPCNDPRP | -0.0241 |
| RRIRSRPPRLPRPRPRPFPCPRP | -0.124 |
| RRIRKRPPRLPRPRPRPVSDPRP | 0.156 |
| RRIRFRPPRLPRPRPRPVHVPRP | -0.191 |
| RRIRERPPRLPRPRPRPMRPPRP | 0.772 |
| RRIRARPPRLPRPRPRPDSHPRP | -0.779 |
| RRIRKRPPRLPRPRPRPVQRPRP | 0.0869 |
| RRIRNRPPRLPRPRPRPSKEPRP | -0.0243 |
| RRIRIRPPRLPRPRPRPCSFPRP | -0.45 |
| RRIRFRPPRLPRPRPRPTIQPRP | -0.266 |
| RRIRCRPPRLPRPRPRPYWIPRP | -1.17 |
| RRIRSRPPRLPRPRPRPGPAPRP | 0.682 |
| RRIRMRPPRLPRPRPRPHDCPRP | 0.0419 |
| RRIRVRPPRLPRPRPRPFMFPRP | -0.433 |
| RRIRNRPPRLPRPRPRPAVTPRP | 0.0989 |
| RRIRARPPRLPRPRPRPYYHPRP | -1.02 |
| RRIRIRPPRLPRPRPRPVSNPRP | -0.0661 |
| RRIRARPPRLPRPRPRPGAGPRP | 0.767 |
| RRIRVRPPRLPRPRPRPHIFPRP | -0.547 |
| RRIRNRPPRLPRPRPRPDQTPRP | -0.0645 |
